Source: patent publication US20180339041A1 (Kyowa Kirin, published 2018)

Columns and labels:
[1] = molecular target: T1, C-terminally FLAG-tagged mouse Gas6 recombinant protein (mGas6-F) (mouse, UniProt Q61592 28-674, limits assumed, gamma-carboxylated glutamic acid residues in the Gla domain (producer cells co-express rat VKOR and human GGCX); positions not given); assay: ELISA: mGas6-F (1 µg/mL) captured on coated anti-FLAG M2 antibody; biotinylated test antibody; streptavidin-HRP/TMB; absorbance 450-570 nm, N=2 (Example 6) [D]
T1 construct: also called mouse Gas6-F
T1 sequence (looked up): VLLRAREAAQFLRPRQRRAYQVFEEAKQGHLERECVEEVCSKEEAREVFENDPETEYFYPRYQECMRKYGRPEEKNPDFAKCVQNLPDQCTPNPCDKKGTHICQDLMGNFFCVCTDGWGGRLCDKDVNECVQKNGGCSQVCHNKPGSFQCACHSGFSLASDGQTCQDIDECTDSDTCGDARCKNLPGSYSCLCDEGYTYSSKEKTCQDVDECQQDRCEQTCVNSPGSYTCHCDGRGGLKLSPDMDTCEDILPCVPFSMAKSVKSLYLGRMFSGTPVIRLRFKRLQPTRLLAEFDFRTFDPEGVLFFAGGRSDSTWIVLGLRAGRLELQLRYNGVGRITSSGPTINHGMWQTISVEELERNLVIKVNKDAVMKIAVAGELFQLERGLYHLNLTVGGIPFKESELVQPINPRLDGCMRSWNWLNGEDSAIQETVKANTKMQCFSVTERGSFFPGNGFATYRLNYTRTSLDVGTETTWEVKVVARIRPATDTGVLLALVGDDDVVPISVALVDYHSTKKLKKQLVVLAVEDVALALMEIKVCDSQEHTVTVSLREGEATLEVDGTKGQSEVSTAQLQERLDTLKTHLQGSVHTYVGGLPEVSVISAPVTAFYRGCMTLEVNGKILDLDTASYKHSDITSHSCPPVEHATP
Procedure: First, 2 μg/mL anti-FLAG antibody [Monoclonal ANTI-FLAG M2 antibody produced in mouse (manufactured by Sigma-Aldrich Co. LLC) diluted with PBS (manufactured by Nacalai Tesque, Inc.)] was dispensed at 50 μL/well to a 96-well plate for ELISA (manufactured by Nalge Nunc International), and the plate was left standing overnight at 4° C. for adsorption. After removal of the immobilization solution, 1% BSA-PBS (manufactured by Nacalai Tesque, Inc.) was added thereto at 300 μL/well, and the plate was left standing at room temperature for 1 hour for blocking and washed five times with Tween 20-PBS (manufactured by Wako Pure Chemical Industries Ltd.).
Each antibody solution was dispensed thereto at 50 μL/well, and the plate was left standing at room temperature for 1 hour. This plate was washed five times with Tween 20-PBS. Then, Streptavidin HRP Conjugate (manufactured by R&D Systems, Inc.) diluted 200-fold with 1% BSA-PBS was dispensed thereto at 50 μL/well, and the plate was left standing at room temperature for 1 hour. This plate was washed five times with Tween 20-PBS, and TMB (manufactured by Sigma-Aldrich Co. LLC) was added thereto at 50 μL/well and reacted. […] The absorbance at a sample wavelength of 450 nm and a reference wavelength of 570 nm (450 nm-570 nm) was measured using a plate reader.

[2] = molecular target: T2, human protein S (derived from human serum; Enzyme Research Laboratories) (human, UniProt P07225 42-676); assay: ELISA: human protein S coated directly on the plate (2 µg/mL); biotinylated test antibody; streptavidin-HRP/TMB (Example 6, method of Example 5(5)) [F]
T2 construct: Homologue of Gas6 used as specificity control
T2 sequence (looked up): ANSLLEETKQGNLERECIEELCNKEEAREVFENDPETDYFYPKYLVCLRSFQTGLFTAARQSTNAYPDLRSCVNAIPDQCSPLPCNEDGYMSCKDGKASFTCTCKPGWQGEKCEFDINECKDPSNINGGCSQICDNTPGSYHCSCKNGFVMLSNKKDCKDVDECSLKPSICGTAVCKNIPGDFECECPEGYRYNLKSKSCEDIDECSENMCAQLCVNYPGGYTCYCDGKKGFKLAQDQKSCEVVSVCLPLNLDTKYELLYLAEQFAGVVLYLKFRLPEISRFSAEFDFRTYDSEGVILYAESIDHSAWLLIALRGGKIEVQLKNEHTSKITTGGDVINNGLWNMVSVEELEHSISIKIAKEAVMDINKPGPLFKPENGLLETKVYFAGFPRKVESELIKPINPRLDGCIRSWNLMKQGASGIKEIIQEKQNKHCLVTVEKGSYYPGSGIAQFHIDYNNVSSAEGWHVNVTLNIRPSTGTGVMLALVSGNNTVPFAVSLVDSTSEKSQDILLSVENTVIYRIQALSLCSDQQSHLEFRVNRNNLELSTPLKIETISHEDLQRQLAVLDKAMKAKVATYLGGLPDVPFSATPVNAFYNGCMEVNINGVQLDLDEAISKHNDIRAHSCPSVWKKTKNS
Procedure: First, a 2 μg/mL solution of the antigen (prepared from each antigen with PBS (manufactured by Nacalai Tesque, Inc.)) was dispensed at 50 μL/well to a 96-well plate for ELISA (manufactured by Nalge Nunc International), and the plate was left standing overnight at 4° C. for adsorption. The plate was washed five times with Tween 20-PBS. Then, 1% BSA-PBS (manufactured by Nacalai Tesque, Inc.) was added thereto at 300 μL/well, and the plate was left standing at room temperature for 1 hour for blocking and washed five times with Tween 20-PBS (manufactured by Wako Pure Chemical Industries Ltd.). Next, the hybridoma culture supernatant was dispensed thereto as a test substance at 50 μL/well, and the plate was left standing at room temperature for 1 hour and then washed five times with Tween 20-PBS. Next, polyclonal goat anti-mouse immunoglobulins/HRP (Dako Denmark A/S, P0447) diluted 2000-fold with 1% BSA-PBS was dispensed thereto at 50 μL/well, and the plate was left standing at room temperature for 1 hour. The plate was washed five times with Tween 20-PBS, and TMB (manufactured by Sigma-Aldrich Co. LLC) was added thereto at 50 μL/well and reacted. At an appropriate point in time, the reaction was terminated by the addition of 1 N hydrochloric acid (manufactured by Wako Pure Chemical Industries Ltd.) at 50 μL/well. The absorbance at a sample wavelength of 450 nm and a reference wavelength of 570 nm (450 nm-570 nm) was measured using a plate reader (Spectra Max, manufactured by Molecular Devices, LLC).
The binding activity of the obtained antibodies against human protein S was measured in the same way as in Example 5(5). […] The secondary detection reagent used was Streptavidin HRP Conjugate (manufactured by R&D Systems, Inc.) diluted 200-fold with 1% BSA-PBS.

B1: anti-human Gas6 mouse monoclonal antibody KM5320 (KM5320-mKG1 antibody) (antibody, V domains shown)
VH: QIQLVQSGPELKKPGETVKISCKASGYTFTNYGMNWVKQAPGKGLKWMGWINTETGEPTYSDDFKGRFAFSLETSATTAYLQINNLRNEDMATYFCAREDGYYGTLDYWGQGTSVTVSS
VL: SIVMTQTPKFLLVSAGDRVTITCKASQSVSNDVAWYQQKPGQSPKVLIYYASNRYTGVPDRFTGSGYGTDFTFTISTVQAEDLAVYFCQQDYSSPWTFGGGTKLEIK
notes: Hybridoma-derived mouse IgG1, kappa; also called KM5320 antibody
[1]
  EC50 (read off the curve): ~3 ng/mL
[2]
  binding result: no binding (tested: 5 µg/mL)

B2: anti-human Gas6 mouse monoclonal antibody KM5321 (KM5321-mKG1 antibody) (antibody, V domains shown)
VH: QIQLVQSGPELKKPGETVKISCRASGYTFTNYGMNWVKQAPGKGLKWMGWINTNTGEPTYTEEFKGRFAFSLETSATTAYLQINDLKNEDTATYFCARDEGWFVYWGQGTLITVSA
VL: ETTVTQSPASLSVATGEKVTIRCITSTDIDDDMNWYQQKPGEPPKLLISEGNTLRPGVPSRFSSSGYGTDFVFTIENTLSEDVADYYCLQTDSVPLTFGAGTKLELK
notes: Hybridoma-derived mouse IgG1, kappa; also called KM5321 antibody
[1]
  EC50 (read off the curve): ~4 ng/mL
[2]
  binding result: no binding (tested: 5 µg/mL)
